Measurements reported in US20250270566A1, “DUAL-SPECIFICITY RNA ATPAMERS FOR REGULATING O-GLCNACYLATION” (University of Georgia Research Foundation, Inc., published 2025).
Blank lines part the entries; values can stand above or below the binder they belong to.

What was measured:
[1] = biological target: T1, ncOGT full-length (OGT-FL, nucleocytoplasmic O-GlcNAc transferase) (UniProt O15294 O15294:1-1046); experiment: SPR; ABB (20 mM Tris-HCl, 150 mM NaCl, 5 mM MgCl2, 0.05% Tween-20, pH 7.5), 25 C, 1:1 model; conditions: tags: His tag (Ni-NTA purified, pET24a-ncOGT-FL, E. coli)
T1 sequence: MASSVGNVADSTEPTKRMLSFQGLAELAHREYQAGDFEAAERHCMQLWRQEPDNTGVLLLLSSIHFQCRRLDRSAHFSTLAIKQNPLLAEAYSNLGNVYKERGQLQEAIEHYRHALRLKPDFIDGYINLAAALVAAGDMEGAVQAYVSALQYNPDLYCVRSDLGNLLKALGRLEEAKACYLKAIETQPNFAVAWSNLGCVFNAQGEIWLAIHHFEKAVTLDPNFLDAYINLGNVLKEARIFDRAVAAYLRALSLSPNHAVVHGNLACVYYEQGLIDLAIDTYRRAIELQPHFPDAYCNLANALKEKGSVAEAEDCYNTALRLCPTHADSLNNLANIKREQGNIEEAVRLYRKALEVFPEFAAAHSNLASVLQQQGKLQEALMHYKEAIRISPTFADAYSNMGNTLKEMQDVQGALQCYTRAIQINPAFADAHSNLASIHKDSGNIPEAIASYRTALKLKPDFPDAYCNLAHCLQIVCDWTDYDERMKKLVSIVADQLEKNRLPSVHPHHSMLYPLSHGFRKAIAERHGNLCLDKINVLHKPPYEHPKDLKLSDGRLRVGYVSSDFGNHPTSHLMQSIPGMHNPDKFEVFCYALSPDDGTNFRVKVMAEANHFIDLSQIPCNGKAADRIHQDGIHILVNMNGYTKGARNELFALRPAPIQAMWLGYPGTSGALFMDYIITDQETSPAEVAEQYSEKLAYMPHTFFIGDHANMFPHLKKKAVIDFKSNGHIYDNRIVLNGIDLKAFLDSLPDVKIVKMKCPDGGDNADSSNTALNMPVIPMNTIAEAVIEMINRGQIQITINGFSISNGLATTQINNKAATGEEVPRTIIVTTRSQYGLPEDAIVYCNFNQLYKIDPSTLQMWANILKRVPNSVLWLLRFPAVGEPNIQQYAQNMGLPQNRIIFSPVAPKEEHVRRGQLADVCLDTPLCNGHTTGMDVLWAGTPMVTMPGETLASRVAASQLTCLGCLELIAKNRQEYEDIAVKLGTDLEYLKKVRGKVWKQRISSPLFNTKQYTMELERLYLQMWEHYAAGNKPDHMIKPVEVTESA
Protocol: T1 was included in the indicated reactions (orange) from 2 μM to 7.8 nM in 2× serial dilution. Data were normalized to the positive control reaction (red). One-way ANOVA test was performed. […] OGT was immunoprecipitated from lysate of T1-expressing cells, using buffers with Mg²⁺ (left) or without Mg²⁺ (right). Then the OGT-bound T1 was quantified by RT-qPCR. Data were normalized to the IgG groups. One-way ANOVA test was performed. RT—Reverse Transcriptase. N=3. […] N=3. […] Cells stably expressing T1 were treated with ActD for the indicated periods. Abundance of T1 was quantified by RT-qPCR (left) and normalized to that of 18S rRNA (right) and initial timepoint (T=0). Data were fitted to a one-phase decay model (curve). N=3. Data are represented as mean±SD. ns, p≥0.05; ****, p<0.0001.
For SPR, Multi Cycle Kinetics was performed according to (Chang, A. L., et al. Methods Enzymol 2014 549:451-466) on a Biacore T100 (GE Healthcare/Cytiva) instrument at 25° C. In assay preparation, an amine-modified T24 DNA linker (NH2-T24) was immobilized to approximately 100 RU in both reference and test flow cells on a sensorchip PEG (GE Healthcare/Cytiva 29239810), using the Amine Coupling Kit (GE Healthcare/Cytiva BR100050). […] Data was analyzed using the Biacore Evaluation Software (GE Healthcare/Cytiva), where the overlaid sensorgrams were fitted into a 1:1 binding model.

[2] = biological target: T1, ncOGT full-length (OGT-FL, …); experiment: FP filter; radiolabeled dot blot (nitrocellulose filter), ABB with 5 mM MgCl2, 37 C, yeast tRNA and BSA competitors; conditions: tags: His tag (Ni-NTA purified, pET24a-ncOGT-FL, E. coli); label: 5'-32P (dot blot)
Protocol: Radiolabeled RNA was diluted in ABB, denatured at 65° C. for 5 min and re-folded at room temperature for 5 min. Then 100 nM of RNA was incubated with multiple concentrations (see Figure legends) of purified ncOGT at 37° C. for 30 min. The volume of each assay was 50 μL. 1 μM yeast tRNA (Invitrogen AM7119) and 50 μg/mL Bovine Serum Albumin (BSA, NEB B9001S) were included as non-specific competitors. After incubation, the reactions were filtered sequentially through a nitrocellulose membrane (Amersham 10600042) and a Nylon membrane (Invitrogen AM10102), on a Bio-Dot Microfiltration Apparatus (Bio-Rad 170-6545). Membranes were washed with 100 μL ABB to remove unbound RNA. Washed membranes were air-dried and exposed to a film (Amersham 28906836) for 2 hr. The film was developed and scanned, and the image was analyzed with Fiji (Schindelin, J., et al. Nat Methods 2012 9:676-682). Quantified data was fitted into a Michaelis-Menten model using GraphPad Prism.

β-catenin = β-catenin (UniProt P35222 P35222:1-781); experiment: SPR; intracellular buffer (20 mM HEPES, 110 mM KCl, 10 mM NaCl, 0.4 mM MgCl2, 5 mM KH2PO4, pH 7.2), 25 C; conditions: tags: His tag (Ni-NTA purified, pET28a-β-catenin, E. coli)
Protocol: Total PLA puncta was counted and normalized to the number of nuclei in each view. Student's t-test was performed. N=8. […] Nucleus and cytoplasm of cells stably expressing 3JB8F+12 was isolated, and RNA in each fraction was quantified by RT-qPCR. RNA abundances were normalized to that of 3JB8F+12 in whole cell lysate (purple bar in upper panel). NEAT1 is a nuclear RNA control, and GAPDH is a cytoplasmic RNA control. Cyt.—Cytoplasm. Nuc.—Nucleus. W.C.—Whole Cell. N=4. T1·bc339—Individual T1 and bc339 aptamers (control). NL8F50/70/100—DS aptamers (T1-linker-bc339) with flexible linkers of 50/70/100 nt. 3JB8F—DS aptamers (T1-linker-bc339) with folded linkers. +4/+12, serial additions (bp) into the folded linker. Quantitated data are normalized to the control group (T1·bc339). Aptamers were expressed from plasmids, and One-way ANOVA test was performed unless indicated. Data are represented as mean±SD. ns, p≥0.05; *, p<0.05; **, p<0.01; ***, p<0.001; ****, p<0.0001.
For SPR, Multi Cycle Kinetics was performed according to (Chang, A. L., et al. Methods Enzymol 2014 549:451-466) on a Biacore T100 (GE Healthcare/Cytiva) instrument at 25° C. […] Data was analyzed using the Biacore Evaluation Software (GE Healthcare/Cytiva), where the overlaid sensorgrams were fitted into a 1:1 binding model.

KAT2A (GCN5) = biological target: T2, KAT2A (GCN5) (UniProt Q92830 2-837); experiment: PLA with antibodies to β-catenin and KAT2A, confocal images of HEK293T cells, -Wnt, T1 • bc339 or 3JB8F+12
T2 construct: Endogenous protein in HEK293T cells; also called KAT2A/GCN5L2
Protocol: FIGS. 12A to 12P show O-GlcNAc regulates β-catenin's interactions with KAT2A. FIGS. 12A to 12H contain confocal images of Proximity Ligation Assay (PLA) on HEK293T cells. Cells were transfected with plasmids encoding the control aptamers (T1·bc339) or a DS aptamer (3JB8F+12 or 3JB8R+12) and stimulated with regular (−Wnt) or Wnt3A-conditioned (+Wnt) medium. PLA was performed with antibodies targeting […] and KAT2A or H3K9ac. In FIGS. 12C and 12D, cells were treated with 50 μM Ac5S for 20 hr. FIGS. 12I to 12P show quantification of FIGS. 12A to 12H. PLA puncta in nucleus were counted and normalized to the number of nuclei in each view. Student's t-test was performed. Data are represented as mean±SD. ns, p≥0.05; ***, p<0.001; ****, p<0.0001. N=10. T1·bc339—Individual T1 and bc339 aptamers (control). 3JB8F+12/R+12—DS aptamers (T1-linker-bc339) with folded linkers.

EP300 = biological target: T3, EP300 (UniProt Q09472 2-2414); experiment: PLA with antibodies to β-catenin and EP300, confocal images of HEK293T cells, -Wnt, T1 • bc339 or 3JB8F+12
T3 construct: Endogenous protein in HEK293T cells
Protocol: FIGS. 13A to 13P show O-GlcNAc regulates β-catenin's interactions with other epigenetic modifiers and β-TrCP. FIGS. 13A to 13F contain confocal images of PLA on HEK293T cells. Cells were transfected with plasmids encoding the control aptamers (T1·bc339) or a DS aptamer (3JB8F+12), and stimulated with regular (−Wnt) or Wnt3A-conditioned (+Wnt) medium. PLA was performed with antibodies targeting β-catenin and EP300, KAT5, or β-TrCP. FIGS. 13G and 13H contain confocal images of the negative control experiments of PLA. Cells were treated with regular (−Wnt) or Wnt3A-conditioned (+Wnt) medium. PLA was performed with the antibody targeting β-catenin and normal rabbit IgG. FIGS. 13I to 13P show quantification of FIGS. 13A to 13H. Nuclear or total PLA puncta were counted and normalized to the number of nuclei in each view. N=10 (I to N) or N=5 (O to P). Student's t-test was performed. Data are represented as mean±SD. **, p<0.01; ***, p<0.001. T1·bc339—Individual T1 and bc339 aptamers (control). 3JB8F+12—A DS aptamer (T1-linker-bc339) with a folded linker.

T3 sequence (Q09472 2-2414 limits assumed): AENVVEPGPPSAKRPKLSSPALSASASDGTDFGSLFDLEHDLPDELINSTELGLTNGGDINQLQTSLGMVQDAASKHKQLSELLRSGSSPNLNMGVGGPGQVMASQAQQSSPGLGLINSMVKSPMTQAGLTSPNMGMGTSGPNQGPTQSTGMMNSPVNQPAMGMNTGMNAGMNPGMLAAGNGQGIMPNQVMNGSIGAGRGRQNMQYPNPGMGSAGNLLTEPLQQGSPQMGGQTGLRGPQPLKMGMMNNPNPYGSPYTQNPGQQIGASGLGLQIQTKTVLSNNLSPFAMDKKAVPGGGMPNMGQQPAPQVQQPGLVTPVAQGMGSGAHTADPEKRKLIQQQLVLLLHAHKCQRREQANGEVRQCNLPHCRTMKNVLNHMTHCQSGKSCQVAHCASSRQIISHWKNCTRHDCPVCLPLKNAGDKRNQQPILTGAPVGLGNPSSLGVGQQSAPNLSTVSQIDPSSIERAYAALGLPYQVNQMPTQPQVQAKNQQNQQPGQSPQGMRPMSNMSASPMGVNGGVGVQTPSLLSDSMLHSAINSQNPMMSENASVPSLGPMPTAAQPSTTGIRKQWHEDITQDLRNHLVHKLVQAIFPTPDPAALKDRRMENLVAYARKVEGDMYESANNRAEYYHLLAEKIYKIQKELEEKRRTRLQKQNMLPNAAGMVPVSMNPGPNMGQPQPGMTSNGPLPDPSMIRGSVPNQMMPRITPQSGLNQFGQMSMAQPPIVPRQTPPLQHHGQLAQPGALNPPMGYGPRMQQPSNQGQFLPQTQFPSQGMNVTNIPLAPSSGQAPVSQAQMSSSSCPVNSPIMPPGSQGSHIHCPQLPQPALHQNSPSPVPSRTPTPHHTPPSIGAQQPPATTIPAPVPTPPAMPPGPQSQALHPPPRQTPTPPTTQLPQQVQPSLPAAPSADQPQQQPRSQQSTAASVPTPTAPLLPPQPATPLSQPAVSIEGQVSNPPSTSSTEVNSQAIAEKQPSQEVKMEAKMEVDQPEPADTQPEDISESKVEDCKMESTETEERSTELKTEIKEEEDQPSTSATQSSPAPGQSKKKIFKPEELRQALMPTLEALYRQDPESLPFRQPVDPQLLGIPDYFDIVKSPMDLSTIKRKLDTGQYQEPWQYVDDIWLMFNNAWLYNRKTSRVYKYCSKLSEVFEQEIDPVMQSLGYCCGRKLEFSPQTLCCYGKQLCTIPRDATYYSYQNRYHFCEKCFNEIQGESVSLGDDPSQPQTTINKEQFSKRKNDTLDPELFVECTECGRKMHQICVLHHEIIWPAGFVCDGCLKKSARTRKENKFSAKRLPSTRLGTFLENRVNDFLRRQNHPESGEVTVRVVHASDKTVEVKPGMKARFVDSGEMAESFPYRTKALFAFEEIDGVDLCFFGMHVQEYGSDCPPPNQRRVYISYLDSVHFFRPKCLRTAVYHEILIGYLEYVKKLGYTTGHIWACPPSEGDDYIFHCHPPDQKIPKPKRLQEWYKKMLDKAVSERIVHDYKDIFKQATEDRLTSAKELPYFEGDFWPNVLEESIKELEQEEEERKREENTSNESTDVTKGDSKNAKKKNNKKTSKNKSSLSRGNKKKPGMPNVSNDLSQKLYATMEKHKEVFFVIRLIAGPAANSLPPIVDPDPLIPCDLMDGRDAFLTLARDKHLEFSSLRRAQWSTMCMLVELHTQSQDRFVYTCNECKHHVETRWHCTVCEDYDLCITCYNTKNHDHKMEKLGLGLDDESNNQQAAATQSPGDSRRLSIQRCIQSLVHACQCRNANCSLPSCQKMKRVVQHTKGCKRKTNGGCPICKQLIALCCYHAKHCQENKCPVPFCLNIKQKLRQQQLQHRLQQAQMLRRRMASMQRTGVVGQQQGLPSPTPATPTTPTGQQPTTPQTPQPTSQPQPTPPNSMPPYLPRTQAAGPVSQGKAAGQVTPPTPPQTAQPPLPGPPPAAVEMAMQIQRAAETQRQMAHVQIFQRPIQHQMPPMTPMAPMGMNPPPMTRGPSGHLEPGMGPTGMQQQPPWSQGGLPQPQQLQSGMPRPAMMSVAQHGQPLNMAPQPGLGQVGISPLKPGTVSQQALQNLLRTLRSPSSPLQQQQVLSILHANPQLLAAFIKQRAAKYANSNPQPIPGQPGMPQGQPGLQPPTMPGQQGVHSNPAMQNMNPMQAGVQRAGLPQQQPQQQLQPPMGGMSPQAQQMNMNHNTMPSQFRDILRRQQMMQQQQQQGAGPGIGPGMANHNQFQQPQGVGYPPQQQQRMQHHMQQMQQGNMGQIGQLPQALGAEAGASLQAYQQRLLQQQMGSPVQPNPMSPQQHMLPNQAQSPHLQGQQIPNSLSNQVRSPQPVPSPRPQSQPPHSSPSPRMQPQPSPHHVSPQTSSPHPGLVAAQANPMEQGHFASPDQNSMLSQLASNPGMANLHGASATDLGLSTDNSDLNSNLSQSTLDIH
T2 sequence (Q92830 2-837 limits assumed): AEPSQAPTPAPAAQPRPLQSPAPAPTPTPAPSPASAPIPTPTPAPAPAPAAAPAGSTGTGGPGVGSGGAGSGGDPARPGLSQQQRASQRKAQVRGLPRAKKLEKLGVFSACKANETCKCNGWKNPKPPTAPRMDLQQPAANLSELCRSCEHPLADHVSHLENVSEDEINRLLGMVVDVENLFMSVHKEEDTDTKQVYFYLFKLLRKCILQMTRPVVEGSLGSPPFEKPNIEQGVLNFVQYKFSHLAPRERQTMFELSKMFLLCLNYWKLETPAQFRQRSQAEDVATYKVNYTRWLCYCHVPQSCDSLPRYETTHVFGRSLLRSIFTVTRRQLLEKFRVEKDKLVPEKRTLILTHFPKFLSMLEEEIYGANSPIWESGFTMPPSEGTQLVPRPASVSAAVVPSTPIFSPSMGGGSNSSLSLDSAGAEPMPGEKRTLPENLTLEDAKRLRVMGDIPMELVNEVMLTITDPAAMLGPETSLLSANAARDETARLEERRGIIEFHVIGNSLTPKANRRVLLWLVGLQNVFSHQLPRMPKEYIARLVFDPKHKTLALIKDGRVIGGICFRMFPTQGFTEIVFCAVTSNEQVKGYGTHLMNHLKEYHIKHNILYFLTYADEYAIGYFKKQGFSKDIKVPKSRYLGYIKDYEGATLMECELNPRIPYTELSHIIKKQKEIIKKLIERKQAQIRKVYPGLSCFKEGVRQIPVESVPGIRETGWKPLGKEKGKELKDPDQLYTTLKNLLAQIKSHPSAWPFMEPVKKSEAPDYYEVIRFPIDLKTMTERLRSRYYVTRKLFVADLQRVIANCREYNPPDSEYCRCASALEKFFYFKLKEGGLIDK

B1: T1 with 3' A28 tail (ssRNA)
RNA: GGGAGAAUCACUUACGGAUCCUCGUUAAGUGGCUCUCAGUCGCCCGUAACUCCGAUGCCGAUGCAGCGGCGACAACUGCACCCAAGGCUCGGAAGCUU
Kd [1]: 60.5 nM

B2: T1 (ssRNA)
RNA: B1 RNA
Kd [2]: ~60 nM

B3: bc339 with 3' A28 tail (ssRNA)
RNA: AGCUUCUGGGCGGCGAUGAGAUGACGUGUGCGGUGGUCGAGAGGUACCUUGGGUGAGGGAAGGGAAGGGAGGUUGACCACUGCGUGACUGCCCAGAAGCU
Kd (β-catenin): 16 nM

binding result (KAT2A (GCN5)): binds
binding result (EP300): binds
B4: β-catenin (endogenous, in HEK293T cells) (other, UniProt P35222 2-781, looked up)
chain: ATQADLMELDMAMEPDRKAAVSHWQQQSYLDSGIHSGATTTAPSLSGKGNPEEEDVDTSQVLYEWEQGFSQSFTQEQVADIDGQYAMTRAQRVRAAMFPETLDEGMQIPSTQFDAAHPTNVQRLAEPSQMLKHAVVNLINYQDDAELATRAIPELTKLLNDEDQVVVNKAAVMVHQLSKKEASRHAIMRSPQMVSAIVRTMQNTNDVETARCTAGTLHNLSHHREGLLAIFKSGGIPALVKMLGSPVDSVLFYAITTLHNLLLHQEGAKMAVRLAGGLQKMVALLNKTNVKFLAITTDCLQILAYGNQESKLIILASGGPQALVNIMRTYTYEKLLWTTSRVLKVLSVCSSNKPAIVEAGGMQALGLHLTDPSQRLVQNCLWTLRNLSDAATKQEGMEGLLGTLVQLLGSDDINVVTCAAGILSNLTCNNYKNKMMVCQVGGIEALVRTVLRAGDREDITEPAICALRHLTSRHQEAEMAQNAVRLHYGLPVVVKLLHPPSHWPLIKATVGLIRNLALCPANHAPLREQGAIPRLVQLLVRAHQDTQRRTSMGGTQQQFVEGVRMEEIVEGCTGALHILARDVHNRIVIRGLNTIPLFVQLLYSPIENIQRVAAGVLCELAQDKEAAEAIEAEGATAPLTELLHSRNEGVATYAAAVLFRMSEDKPQDYKKRLSVELTSSLFRTEPMAWNETADLGLDIGAQGEPLGYRQDDPSYRSFHSGGYGQDALGMDPMMEHEMGGHHPGADYPVDGLPDLGHAQDLMDGLPPGDSNQLAWFDTDL
modifications: O-GlcNAc at varying levels (raised by the DS aptamer 3JB8F+12); sites not fully mapped
notes: Endogenous protein detected in fixed cells (PLA) or cell lysate (Co-IP) with an anti-β-catenin antibody; HEK293T is a human cell line; also called endogenous β-catenin
